For one substance, maximal cytolysis of SKOV3 tumor cells (xCELLigence, E:T 1:1) results are on record in US20250222029A1.

The test addresses HER2 (human epidermal growth factor receptor 2) (human) (UniProt P04626). Nature of the test: cell-based or functional assay.

In the case of “CasMab250 (H/L)-based CAR with medium spacer (IgG4 hinge & CH3 domain) and CD28-CD3ζ1XX intracellular signaling domains”, the maximal cytolysis of SKOV3 tumor cells (xCELLigence, E:T 1:1) was determined as 90%.
